Where two headings read alike, the source gives them in different places.
Legend:
CD81 [1] = target: T1, CD81 (UniProt P60033 1-236, limits assumed); assay: cell ELISA;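 also: antibody binding to HuH7 cells expressing CD81 versus a CD81-negative HuH7 control line, bound antibody detected by secondary reagent, absorbance at 450 nm with 620 nm reference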
T1 construct: whole, on cells; also called CD81 receptor
T1 sequence (looked up): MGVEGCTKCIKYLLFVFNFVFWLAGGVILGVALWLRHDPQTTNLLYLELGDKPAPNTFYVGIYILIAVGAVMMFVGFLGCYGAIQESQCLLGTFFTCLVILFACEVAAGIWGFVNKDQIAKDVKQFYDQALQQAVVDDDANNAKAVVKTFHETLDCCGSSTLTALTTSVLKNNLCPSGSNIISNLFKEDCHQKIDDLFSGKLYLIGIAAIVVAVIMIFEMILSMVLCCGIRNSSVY

CD81 [2] = target: T1, CD81; assay: cell ELISA; remark: listed apart in the source;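 also: antibody binding to HuH7 cells expressing CD81 versus a CD81-negative HuH7 control line, bound antibody detected by secondary reagent, absorbance at 450 nm with 620 nm reference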

ELISA data (CD81 [1]): 0.107
ELISA data (CD81 [2]): 0.125
B1: CD81K04 HC JA_GG-14-hVH_1_69-GA / LC JA_GG-07-hVK_7_3 (antibody, V domains shown)
VH: QVQLVQSGAEVKKPGSSVKVSCKASGYTFSSSWMNWVRQAPGQGLEWMGRIYSGDGDAIYNGKFKGKATITADESTSTAYMELSSLRSEDTAVYYCAREGKTGDLLLRSWGQGTLVTVSS
VL: DIVLTQSPASLAVSPGQRATITCRASKSVSTSIYSYMHWYQQKPGQPPKLLIKYASNKDTGVPARFSGSGSGTDFTLTINPVEANDAANYYCLHSREFPYTFGQGTKLEIK
notes: human constant region

Reference: patent US20200377590A1 (Hoffmann-La Roche, published 2020)
